# Values joined by “and” are separate entries in the source; they are usually repeats but may differ in a detail not shown here. Identical values can stand only once. Like-named read-outs stand apart in the source and are kept apart here.
# T1: mCherry-tagged full-length Spindly (^mChSpindly^FL) (human), Q96EA4
# T1 chain: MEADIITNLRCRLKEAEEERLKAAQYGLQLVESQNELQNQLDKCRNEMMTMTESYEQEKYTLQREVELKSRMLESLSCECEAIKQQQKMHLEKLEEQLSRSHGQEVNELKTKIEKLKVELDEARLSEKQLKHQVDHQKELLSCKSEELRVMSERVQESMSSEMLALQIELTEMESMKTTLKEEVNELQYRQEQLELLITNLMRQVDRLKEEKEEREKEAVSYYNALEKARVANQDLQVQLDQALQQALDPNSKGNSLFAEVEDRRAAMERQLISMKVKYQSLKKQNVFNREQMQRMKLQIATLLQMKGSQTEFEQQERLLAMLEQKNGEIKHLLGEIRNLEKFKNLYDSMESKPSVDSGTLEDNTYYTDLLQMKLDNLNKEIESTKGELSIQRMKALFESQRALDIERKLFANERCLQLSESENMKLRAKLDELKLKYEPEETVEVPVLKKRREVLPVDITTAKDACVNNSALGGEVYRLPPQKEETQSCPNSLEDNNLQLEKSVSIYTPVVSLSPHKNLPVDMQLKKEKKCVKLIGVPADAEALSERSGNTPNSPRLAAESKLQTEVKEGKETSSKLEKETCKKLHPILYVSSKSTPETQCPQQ
# T2: Spindly^250-605 (human, UniProt Q96EA4 250-605)
# T2 sequence: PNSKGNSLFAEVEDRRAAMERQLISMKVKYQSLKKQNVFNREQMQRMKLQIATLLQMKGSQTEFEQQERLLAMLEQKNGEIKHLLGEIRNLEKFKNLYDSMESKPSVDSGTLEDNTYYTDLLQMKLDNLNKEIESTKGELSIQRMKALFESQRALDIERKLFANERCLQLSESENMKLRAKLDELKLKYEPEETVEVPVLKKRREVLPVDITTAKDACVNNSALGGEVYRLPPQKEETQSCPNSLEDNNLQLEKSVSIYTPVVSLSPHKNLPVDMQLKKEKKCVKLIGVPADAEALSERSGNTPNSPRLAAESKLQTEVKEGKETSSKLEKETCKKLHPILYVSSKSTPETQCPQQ
# Key:
# [1] = biological target: the molecule itself; assay: mass photometry
# [2] = biological target: T1, mCherry-tagged full-length Spindly …; assay: mass photometry; conditions: remark: other sources report otherwise
# [3] = biological target: the molecule itself
# [4] = biological target: T2, Spindly^250-605; assay: SEC
# [5] = biological target: the molecule itself; assay: crystal structure
binder,measurement,setting,value
^mChSpindly^ΔRV (natural protein) MEADIITNLRCRLKEAEEERLKAAQYGLQLVESQNELQNQLDKCRNEMMTMTESYEQEKYTLQREVELKSRMLESLSCECEAIKQQQKMHLEKLEEQLSRSHGQEVNELKTKIEKLKVELDEARLSEKQLKHQVDHQKELLSCKSEELRVMSEQESMSSEMLALQIELTEMESMKTTLKEEVNELQYRQEQLELLITNLMRQVDRLKEEKEEREKEAVSYYNALEKARVANQDLQVQLDQALQQALDPNSKGNSLFAEVEDRRAAMERQLISMKVKYQSLKKQNVFNREQMQRMKLQIATLLQMKGSQTEFEQQERLLAMLEQKNGEIKHLLGEIRNLEKFKNLYDSMESKPSVDSGTLEDNTYYTDLLQMKLDNLNKEIESTKGELSIQRMKALFESQRALDIERKLFANERCLQLSESENMKLRAKLDELKLKYEPEETVEVPVLKKRREVLPVDITTAKDACVNNSALGGEVYRLPPQKEETQSCPNSLEDNNLQLEKSVSIYTPVVSLSPHKNLPVDMQLKKEKKCVKLIGVPADAEALSERSGNTPNSPRLAAESKLQTEVKEGKETSSKLEKETCKKLHPILYVSSKSTPETQCPQQ,stoichiometry N,[1],2
"mCherry-tagged full-length Spindly (^mChSpindly^FL), Q96EA4 1-605 (natural protein) MEADIITNLRCRLKEAEEERLKAAQYGLQLVESQNELQNQLDKCRNEMMTMTESYEQEKYTLQREVELKSRMLESLSCECEAIKQQQKMHLEKLEEQLSRSHGQEVNELKTKIEKLKVELDEARLSEKQLKHQVDHQKELLSCKSEELRVMSERVQESMSSEMLALQIELTEMESMKTTLKEEVNELQYRQEQLELLITNLMRQVDRLKEEKEEREKEAVSYYNALEKARVANQDLQVQLDQALQQALDPNSKGNSLFAEVEDRRAAMERQLISMKVKYQSLKKQNVFNREQMQRMKLQIATLLQMKGSQTEFEQQERLLAMLEQKNGEIKHLLGEIRNLEKFKNLYDSMESKPSVDSGTLEDNTYYTDLLQMKLDNLNKEIESTKGELSIQRMKALFESQRALDIERKLFANERCLQLSESENMKLRAKLDELKLKYEPEETVEVPVLKKRREVLPVDITTAKDACVNNSALGGEVYRLPPQKEETQSCPNSLEDNNLQLEKSVSIYTPVVSLSPHKNLPVDMQLKKEKKCVKLIGVPADAEALSERSGNTPNSPRLAAESKLQTEVKEGKETSSKLEKETCKKLHPILYVSSKSTPETQCPQQ",stoichiometry N,[2],2
Spindly^1-275 (domain or fragment) MEADIITNLRCRLKEAEEERLKAAQYGLQLVESQNELQNQLDKCRNEMMTMTESYEQEKYTLQREVELKSRMLESLSCECEAIKQQQKMHLEKLEEQLSRSHGQEVNELKTKIEKLKVELDEARLSEKQLKHQVDHQKELLSCKSEELRVMSERVQESMSSEMLALQIELTEMESMKTTLKEEVNELQYRQEQLELLITNLMRQVDRLKEEKEEREKEAVSYYNALEKARVANQDLQVQLDQALQQALDPNSKGNSLFAEVEDRRAAMERQLISM,stoichiometry N,[3],2 and 4
Spindly^1-250 (domain or fragment) MEADIITNLRCRLKEAEEERLKAAQYGLQLVESQNELQNQLDKCRNEMMTMTESYEQEKYTLQREVELKSRMLESLSCECEAIKQQQKMHLEKLEEQLSRSHGQEVNELKTKIEKLKVELDEARLSEKQLKHQVDHQKELLSCKSEELRVMSERVQESMSSEMLALQIELTEMESMKTTLKEEVNELQYRQEQLELLITNLMRQVDRLKEEKEEREKEAVSYYNALEKARVANQDLQVQLDQALQQALDP,binding result,[4],binds
Spindly^1-100 (domain or fragment) MEADIITNLRCRLKEAEEERLKAAQYGLQLVESQNELQNQLDKCRNEMMTMTESYEQEKYTLQREVELKSRMLESLSCECEAIKQQQKMHLEKLEEQLSR,stoichiometry N,[5],2
^mChSpindly^Δ276-306 (natural protein) MEADIITNLRCRLKEAEEERLKAAQYGLQLVESQNELQNQLDKCRNEMMTMTESYEQEKYTLQREVELKSRMLESLSCECEAIKQQQKMHLEKLEEQLSRSHGQEVNELKTKIEKLKVELDEARLSEKQLKHQVDHQKELLSCKSEELRVMSERVQESMSSEMLALQIELTEMESMKTTLKEEVNELQYRQEQLELLITNLMRQVDRLKEEKEEREKEAVSYYNALEKARVANQDLQVQLDQALQQALDPNSKGNSLFAEVEDRRAAMERQLISMKGSQTEFEQQERLLAMLEQKNGEIKHLLGEIRNLEKFKNLYDSMESKPSVDSGTLEDNTYYTDLLQMKLDNLNKEIESTKGELSIQRMKALFESQRALDIERKLFANERCLQLSESENMKLRAKLDELKLKYEPEETVEVPVLKKRREVLPVDITTAKDACVNNSALGGEVYRLPPQKEETQSCPNSLEDNNLQLEKSVSIYTPVVSLSPHKNLPVDMQLKKEKKCVKLIGVPADAEALSERSGNTPNSPRLAAESKLQTEVKEGKETSSKLEKETCKKLHPILYVSSKSTPETQCPQQ,stoichiometry N,[3],2 and 4
^mChSpindly^76-605 (domain or fragment) LSCECEAIKQQQKMHLEKLEEQLSRSHGQEVNELKTKIEKLKVELDEARLSEKQLKHQVDHQKELLSCKSEELRVMSERVQESMSSEMLALQIELTEMESMKTTLKEEVNELQYRQEQLELLITNLMRQVDRLKEEKEEREKEAVSYYNALEKARVANQDLQVQLDQALQQALDPNSKGNSLFAEVEDRRAAMERQLISMKVKYQSLKKQNVFNREQMQRMKLQIATLLQMKGSQTEFEQQERLLAMLEQKNGEIKHLLGEIRNLEKFKNLYDSMESKPSVDSGTLEDNTYYTDLLQMKLDNLNKEIESTKGELSIQRMKALFESQRALDIERKLFANERCLQLSESENMKLRAKLDELKLKYEPEETVEVPVLKKRREVLPVDITTAKDACVNNSALGGEVYRLPPQKEETQSCPNSLEDNNLQLEKSVSIYTPVVSLSPHKNLPVDMQLKKEKKCVKLIGVPADAEALSERSGNTPNSPRLAAESKLQTEVKEGKETSSKLEKETCKKLHPILYVSSKSTPETQCPQQ,stoichiometry N,[1],2
